Measured values reported in patent publication US20210403582A1 (JACOBIO PHARMACEUTICALS, published 2021).

What was measured:
[1] = target: T1, human LIF protein (human, UniProt P15018 23-202); test: KinExA 4000, solution equilibrium
T1 construct: Bought recombinant protein (Sino Biological / Yiqiao Shenzhou 14890-HNAH) in most assays; also called recombinant human LIF protein; rhLIF
Procedure: The affinity of the purified monoclonal antibodies to the recombinant human LIF protein was determined by KinExA 4000. 200 mg PMMA hard beads were added with 30 μg of the 38E10E1C11 antibody and additional adding coating solution to 1 mL. The buffer composition is 1 xPBS, pH 7.4, 0.02% NaN3. And make sure that the beads were completely suspended in the solution, and rotated for 2 h at room temperature. The beads were naturally settled or quickly centrifuged at low speed. The supernatant was removed and the beads were blocked with PBS containing 1% BSA. 15 mL of 300 pM antigen solution and 15 mL of 240 pM Ab2 (38E10E1C11) solution were prepared. 0.6 mL of 300 pM antigen and 0.6 mL of 240 pM antibody Ab2 (38E10E1C11) were put into different sample tubes separately. The samples in the two tubes were well mixed and put together into one tube, the concentration of the antigen was 150 pM and the concentration of antibody Ab2 (38E10E1C11) was 120 pM at this time, and the solution was placed in the corresponding position in the tube holder. […] Each group was added with 1 μg/L1 Streptavidin Protein, DyLight 650 Solution, and was detected on machine set to incubate for 24 hours. In the KinExatm Pro software, the equilibrium dissociation constant (Kd) for n-curve analysis was calculated by the unknown ligand model, and the results are shown in FIG. 4.

[2] = target: T1, human LIF protein; test: competition ELISA: human LIF coated at 1 µg/mL, GP130-Fc 20 µg/mL added together with the antibody, A450
Procedure: The recombinant human LIF protein was coated on the enzyme label plates at a concentration of 1 μg/mL, GP130 protein (expressed fusedly with human FC) at a concentration of 20 μg/mL was added (50 μL/well), and the anti-human LIF antibodies P36-033 and 38E10E1C11 at different concentrations simultaneously were added separately (50 μL/well), and incubated for 2 h at room temperature. At the same time, the control wells added with antibodies and without GP130 protein were set. Incubated for 2 h at room temperature. After washed four times with PBST, incubated with HRP-labeled goat anti-mouse FC secondary antibody for 1 h at room temperature. Then the plates were washed four times with PBST and added with TMB coloured solution in for 10 minutes. The absorption value at 450 nm is quantitated using an enzyme-labelling measuring instrument, and the data was analyzed and plotted using Origin pro 9 software.

[3] = target: recombinant mouse LIF protein (mouse, UniProt P09056 24-203); test: ELISA, mouse LIF coated at 1 µg/mL, A450
Procedure: The recombinant mouse LIF protein (purchased from ACRO Biosystems) was diluted to 1 μg/mL, and was coated on the enzyme label plate, 100 μL of protein was added into every well, and incubated overnight in 4° C. The enzyme label plates were taken out next day, and the liquid was discarded, and were washed with PBST three times and blocked with 2% BSA in PBS for 1 h at room temperature, then washed with PBST three times, and added anti-human LIF antibodies 38E10E1C11, 5D8 and P36-033 at different concentrations and incubated for 1 h at room temperature. The liquid was discarded, and the plates were washed with PBST four times. The plates were added with HRP-labeled goat anti-mouse Fab antibody or goat anti-human FC antibody and incubated for 1 h at room temperature. Then the liquid was discarded, and the plates were washed four times with PBST and incubated with TMB colored solution in 10 minutes at room temperature. Stop color development by adding 2 mol/L H₂SO₄, and the absorption value at 450 nm is quantitated using an automated plate photometer, and the results were shown in FIG. 2.

[4] = target: T1, human LIF protein; test: competition ELISA: human LIF coated at 1 µg/mL, LIFR-Fc 0.6125 µg/mL added together with the antibody, A450
Procedure: The recombinant human LIF protein was coated on the enzyme label plate at a concentration of 1 μg/mL, LIFR protein (expressed fusedly with human FC) at a concentration of 0.6125 μg/mL was added (50 μL/well), and the anti-human LIF antibodies 38E10E1C11, P36-033 and 38E10E1C11R which is recombinantly expressed by CHO cells (SEQ ID NOs: 41 and 43) at different concentrations simultaneously were added separately (50 μL/well) and incubated for 2 h at room temperature. After washed four times with PBST, incubated with HRP-labeled goat anti-mouse FC secondary antibody for 1 h at room temperature. Then the plates were washed four times with PBST and added with TMB coloured solution in for 10 minutes. The absorption value at 450 nm is quantitated using an enzyme-labelling measuring instrument, and the data was analyzed and plotted using Origin pro 9 software.

T1 sequence (P15018 23-202 limits assumed): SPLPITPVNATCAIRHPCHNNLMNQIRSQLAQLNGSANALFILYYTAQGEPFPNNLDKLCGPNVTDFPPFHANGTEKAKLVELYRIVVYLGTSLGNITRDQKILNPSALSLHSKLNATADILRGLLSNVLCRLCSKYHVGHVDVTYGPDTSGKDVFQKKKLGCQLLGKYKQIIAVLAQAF

B1: 38E10E1C11 antibody (antibody, mouse IgG1, kappa)
heavy: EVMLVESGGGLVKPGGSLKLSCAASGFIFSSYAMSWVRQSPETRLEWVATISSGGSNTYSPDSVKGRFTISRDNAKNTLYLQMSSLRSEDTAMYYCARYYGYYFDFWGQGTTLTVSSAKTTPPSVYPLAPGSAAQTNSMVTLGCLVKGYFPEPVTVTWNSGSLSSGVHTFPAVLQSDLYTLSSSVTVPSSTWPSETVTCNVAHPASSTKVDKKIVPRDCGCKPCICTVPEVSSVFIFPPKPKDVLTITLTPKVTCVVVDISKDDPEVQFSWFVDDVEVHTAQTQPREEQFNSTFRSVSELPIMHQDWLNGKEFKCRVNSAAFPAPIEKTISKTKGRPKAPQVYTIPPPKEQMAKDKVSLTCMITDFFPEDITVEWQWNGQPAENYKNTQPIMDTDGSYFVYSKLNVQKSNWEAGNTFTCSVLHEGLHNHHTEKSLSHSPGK
light: DIHMTQSPASLSASVGETVTITCRASENIYSYLAWYQQKQGKSPQLLVYNAKTLAEGVPSRFSGSGSGTQFSLKINSLQPEDFGSYYCQHHYVTPLTFGAGTKLELKRADAAPTVSIFPPSSEQLTSGGASVVCFLNNFYPKDINVKWKIDGSERQNGVLNSWTDQDSKDSTYSMSSTLTLTKDEYERHNSYTCEATHKTSTSPIVKSFNRNEC
notes: Mouse IgG1, kappa light chain; also called 38E10E1C11 mAb; mAb38E10E1C11
Kd [1]: 4.52 pM
IC50 (read off the curve) [2]: ~0.6 µg/mL
binding result [3]: no binding (tested: 100 µg/mL (log 2))
IC50 (read off the curve) [4]: ~0.3 µg/mL
